Assay: yeast display, Sf9 membrane polyspecificity reagent, FACS + sequencing; frameworks hold sequencing errors
Method in brief: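 Synthetic nanobody libraries on Saccharomyces cerevisiae BJ5465 were galactose-induced for 36–48 hours, stained 1 hour at 4 °C with 10% biotinylated, detergent-solubilized Sf9 membrane reagent and enriched on streptavidin microbeads. FACS then separated cells into low and high (top ~1%) gates by anti-HA (expression) and streptavidin (reagent binding) fluorescence. Genes were colony-PCR amplified, MiSeq 2 × 250 sequenced and CDR-length filtered. A clone's polyreactivity label is that of its gate of origin.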

| Sequence | polyreactivity (PSR sort gate) |
| --- | --- |
| QVQLVESGGGLVQAGGSLRLSCAASGFTFYQYAMGWYRQAPGKERELVASISWSGGRTYYADSVKGRFTISRDNAKNTVYLQMNSLKPEDTAVYYCAARAYRIAGYDYWGQGTQVTVSS | high polyreactivity |
| QVQLVESGGGLVQAGGSLRLSCAASGFTFYRNAMGWYRQAPGKERELVAGISKRGGSTYYADSVKGRFTISRDNAKNTVYLQMNSLKPEDTAVYYCAAYKQYRFYRYDYWGQGTQVTVSS | high polyreactivity |
| QVQLVESGGGLVQAGGSLRLSCAASGFTFYRNAMGWYRQAPGKEREMVAAISWSGDSTYYADSVKGRFTISRDNAKNTVYLQMNSLNPEDTAVYYCAKERYFYYPWVTTYTSNYWGQGTQVTVSS | low polyreactivity |
| QVQLVESGGGLVQAGGSLRLSCAASGFTFYRNAMGWYRQPPGKERELVAAIDFSGSSTYYADSVKGRFTISRDNAKNTVYLQMNSLKPEDTAVYDCAAELGYAGYWYDYWGQGTQVTVSS | high polyreactivity |
| QVQLVESGGGLVQAGGSLRLSCAASGFTFYRYAMGWYRKAPGKERELVAAITRSGSRTYYADSVKGRFTISRDNAKNTVYLQMNSLKPEDTAVYYCKTDGGDHPTARYGYWGQGTQVTVSS | high polyreactivity |
| QVQLVESGGGLVQAGGSLRLSCAASGFTFYRYAMGWYRQAPGKERELVAAITRTGGSTYYADSVKGRFTISRDNAKNTVYLQMNSLKPEDTAVYYCAARVHGTGTLKYPNYYWGQGTQVTVSS | high polyreactivity |
| QVQLVESGGGLVQAGGSLRLSCAASGFTFYRYAMGWYRQAPGKERELVATISASGGSTYYADSVKGRFTISRDNAKNTVYLQMNSLKPEDTAVYYCAVRYKSWFGFNYWGQGTQVSVSS | high polyreactivity |
| QVQLVESGGGLVQAGGSLRLSCAASGFTFYRYTMGRYRQAPGKERELVAAITWSGGNTYYADSVKGRFTISRDNAKNTVYLQMNSLKPEDNAVYYCAAYKPYSKYNYWGQGTQVTVSS | high polyreactivity |
| QVQLVESGGGLVQAGGSLRLSCAASGFTFYRYVMGWYRKAPGKETELDAAISRRGGSTYYADSVKGRFTISRDNAKNTVYLQMNSLKPEDTAVYYCAADVISRYYVQYIGYYELHYDYWGQGTQVTVSS | high polyreactivity |
| QVQLVESGGGLVQAGGSLRLSCAASGFTFYSYAMGWYRQAPGKEREFVAAGSTYYADSVKGRFTISRDNAKNTVYLQMNSLKPEDTAVYYCAADPWIYVQSYGYWGQGTQVTVSS | low polyreactivity |
| QVQLVESGGGLVQAGGSLRLSCAASGFTFYSYAMGWYRQAPGKERELVAAISWSGSRTYYADSVKGRFTISRDNAKNTVYLQMNSLKPEDTAVYYCTKYLPRHRYDFDYWGQGTQVTVSS | high polyreactivity |
| QVQLVESGGGLVQAGGSLRLSCAASGFTFYSYAMGWYRQAPGKERELVATISRNGGTTRYADSVKGRFTISRDNAKNTVYLQMNSLKPEDTAVYYCNAVYYAYSRHSYAMDYWGQGTQVTVSS | high polyreactivity |
| QVQLVESGGGLVQAGGSLRLSCAASGFTFYSYAMGWYRQAPGKERELVATITASGGSTYYADSVKGRFTISRDNAKNSVYLQMISLKPEDTAVYYCAAYHPHGFDYYRYYYWGQGTQVTVSS | high polyreactivity |
| QVQLVESGGGLVQAGGSLRLSCAASGFTFYSYAMGWYRQAPGTERELVAAISGGGGSTYYADSVKGRFTISRDNAKNTVYLQMNSLKPEDTAVYYCAKRPAYRGYGLGYYWGQGTQVTVSS | high polyreactivity |
| QVQLVESGGGLVQAGGSLRLSCAASGFTFYSYTMGWYRQAPGKERELVAAITRGGRTYYADSVKGRFTISRDNAKNTVYLQMNSLKPEDTAVYYCAARVGSWTQSFGYDYWGQGTQVTVSS | high polyreactivity |
| QVQLVESGGGLVQAGGSLRLSCAASGFTFYTNAMGWYRQAPGKERELVADITTSGGDTYYADSVKGRFTISRDNAKNTVYLQMNSLTPEDTAVYYCGEFWTYWGYGQYDYWGQCTQVTVSS | low polyreactivity |

| Sequence | polyreactivity (PSR sort gate) |
| --- | --- |
| QVQLVESGGGLVQAGGSLRLSCAASGFTFYTYAMGWYRQAPGKERELVADISSGGSTNYADPVKGRFTISRDNAKNTVDLQMNCLKPEDTAVYYCSADYYFLDWYDYWGQGTQVTVSS | low polyreactivity |
| QVQLVESGGGLVQAGGSLRLSCAASGFTFYTYAMGWYRQEPGKEREMVATISGSGGDTNYADSVKGRFTISRDNAKNTGYLQMDSLKPEDTAVYYCAAETQSVWSGFYYWGQGTQVTVSS | low polyreactivity |
| QVQLVESGGGLVQAGGSLRLSCAASGFTFYTYAMGWYRQPPGKERELVAAISRRGGSTYYADSVKGRFTISRDNAKNTVYLQMNSLKPEDTAVYYFNAVADSYSGFDGYYYWGQGTQVTVSS | high polyreactivity |
| QVQLVESGGGLVQAGGSLRLSCAASGFTFYTYVMGWYIQAPGKERELVAAITSGVYTNYADSVKGRFTISRDNAKNTVDLQMKSLKPEDTAVYYCNKDVRQAYRWYDSWGQDTQVTVSS | low polyreactivity |
| QVQLVESGGGLVQAGGSLRLSCAASGFTFYTYVMGWYRQAPGKERELVAAITSGVSTNYADSVKGRFTISRDNAKNTVYLQMNSLKPEDTAVYYCAAGSDFQYGHDYWGQGTQVTVSS | low polyreactivity |
| QVQLVESGGGLVQAGGSLRLSCAASGFTFYVNAMGWYRQAPGKEREFVAAISASGASTRYADSVKGRFTISRDNAKNTVYLQMNSLKPEDTAVYYCAADAPAWILEAYGYWGQGTQVTVSS | low polyreactivity |
| QVQLVESGGGLVQAGGSLRLSCAASGFTFYVYAIGWYRKAPRKEREFVAAISKSGGRTYYADSVKGRFTISRDTAKNTVYLQMNSLKPEDTAVYYCGRYNRYQIIYPRFDYWGHGTQVTVSS | high polyreactivity |
| QVQLVESGGGLVQAGGSLRLSCAASGFTFYVYAMGWYRQARGQERELVATISRGGSTNYADSVKGRFTISRDNAKNTVYLQMNSLKPEDTAVYYCAARKYHYFPSRYGYWGQGTQVTVSS | high polyreactivity |
| QVQLVESGGGLVQAGGSLRLSCAASGFTFYWNAMGWSRQAPGKERELVAAINGGDSTNYADSVKGRFTISRDNAKNTVYLQMNSLKPEDTAVYYCAAEPSLEAWTAFGSYYWGQGTQVTVSS | low polyreactivity |
| QVQLVESGGGLVQAGGSLRLSCAASGFTFYWYAMGWYRQAPGKERQLVAAISKTGGSTYYADSVKGRFTISRDNAQKTVYLQMTSLKPEDTAVYYCNADKVATWRTHHDYWGQGTQVTVSS | low polyreactivity |
| QVQLVESGGGLVQAGGSLRLSCAASGFTFYYNAMGWYRQAPGKERELVAIRFRGGNTYYADSVKGRFTISRDNAKNTVYLQMNSLKPEDTAVYYCNADDRGSTYVDFDYWGQGTQVTVSS | low polyreactivity |
| QVQLVESGGGLVQAGGSLRLSCAASGFTFYYNAMGWYRQAPGKERELVAIRFRGGNTYYADSVKGRFTISRDNAKNTVYLQMNSLKPEDTAVYYCNADDRGSTYVEFDYWGQGTQVTVSS | low polyreactivity |
| QVQLVESGGGLVQAGGSLRLSCAASGFTFYYYAMGWSRQAPGKERELVAAISTRDGNTYYADSVKGRFTISRDNAKNTVYLQRNSLKPEDTAVYYCAADYFRYYPYDYWGQGTQVTVSS | low polyreactivity |
| QVQLVESGGGLVQAGGSLRLSCAASGFTFYYYAMGWYRQAPGKERELVAAIDTGGSTNYADSVKGRFTISRDNAKNTVYLQMNSLKPEDTAVYYCNADTPDHYGHYDYWGQGTQVTVSS | low polyreactivity |
| QVQLVESGGGLVQAGGSLRLSCAASGFTFYYYAMGWYRQAPGKERELVAAISSSGVRTYYADSVKGRFTISRDNAKNTVYLQMKSLKPEDTAVYYCATVGRGFPSVELDYWGQGTQVTVSS | high polyreactivity |
| QVQLVESGGGLVQAGGSLRLSCAASGFTFYYYAMGWYRQAPRKERQLVAAFSWSGGSTYYADSVKGRFTISRDYAKNTVYLQMNRLKPVDTAVYYCNAYPGYRSRSDYGYWGQGTQVTVSS | high polyreactivity |

From the nanobody polyreactivity screen of Harvey et al. (2022)
